Our source for the Kd values is US20210054084A1 (published 2021).

This experiment deals with T1, recombinant human CD25 his tagged (UniProt P01589 22-213).
T1 chain: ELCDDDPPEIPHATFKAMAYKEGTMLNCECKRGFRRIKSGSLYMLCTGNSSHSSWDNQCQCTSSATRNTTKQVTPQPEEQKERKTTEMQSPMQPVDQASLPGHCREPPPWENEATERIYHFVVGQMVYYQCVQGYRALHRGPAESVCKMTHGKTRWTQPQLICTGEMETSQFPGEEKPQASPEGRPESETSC
The experiment can be described thus: BLI (Octet). Background: In BLI a coated tip is dipped into the sample, and binding shifts an interference pattern.

B1: Antibody 1 as human IgG1 expressed in mammalian cells (antibody, V domains shown)
VH: EVQLVESGGGLIQPGGSLRLSCAASGFTLDSYGVSWVRQAPGKGLEWVGVTSSGGSAYYADSVKGRFTISRDNSKNTLYLQMNSLRAEDTAVYYCARDRYVYTGGYLYHYGMDLWGQGTLVTVSS
VL: DIQMTQSPSSLSASVGDRVTITCRASQSISDYLAWYQQKPGKVPKLLIYAASTLPFGVPSRFSGSGSGTDFTLTISSLQPEDVATYYCQGTYDSSDWYWAFGGGTKVEIK
On to B1, for which the Kd was found to be 0.8 nM.

Usually Kd stands for the free concentration of one partner at which half of the binding sites on the other are occupied at equilibrium, for simple one-to-one binding.
